From the DeepSol protein solubility set

Experiment: soluble on expression in E. coli; label from the status in PepcDB or PDB records

| Sequence | soluble on expression in E. coli |
| --- | --- |
| MNRSGQRLIVSAPRQIAFSTAVRQLSATPIQCQNESENSEPQKQGWISRLLKGQSMDPSSWQKQSHSSLLSNSELMYEFMTHNYRPGEQDAYLDAFGKYKNEMNQKNPSIELVGSWTCAYGRTRDQAIHLWRHNKGYEDVDSSISLHGKDSGIRAADNDVAKLCGRRKNLIVKSFSYWREPEQRPPNHVYDLRSYVLQPGTMIDWASAWAKGIQYRREANQDVGGFFAQVGQLYVVYHIWAYPSMSGRNDTRHATWAKPGWDATVANTVPLIKKMQSKILTPTKYSQLE | not soluble |
| MNRYITRGIDNNLPIILQQQLWKLVAQRENEQSKELEAIDYFHIFQFNMHNDQLCIKHKQERPEYIKTHKANYSKAINIKKVYIIREDDVDLSYYVMLLPEEYAAALEHHHHHH | soluble |
| MNSDEVQLIKKTWEIPVATPTDSGAAILTQFFNRFPSNLEKFPFRDVPLEELSGNARFRAHAGRIIRVFDESIQVLGQDGDLEKLDEIWTKIAVSHIPRTVSKESYNQLKGVILDVLTAASSLDESQAATWAKLVDHVYGIIFKAIDDDGNAK | soluble |
| MNSIKNVPARVLSRRPGHSLEAEREQFDKTQAISISKAINTQEAPVKEKHARRIILGTHHEKGAFTFWSYAIGLPLPSSSILSWKFCHVLHKVLRDGHPNVLHDCQRYRSNIREIGDLWGHLHDRYGQLVNVYTKLLLTKISFHLKHPQFPAGLEVTDEVLEKAAGTDVNNIFQLTVEMFDYMDCELKLSESVFRQLNTAIAVSQMSSGQCRLAPLIQVIQDCSHLYHYTVKLLFKLHSCLPADTLQGHRDRFHEQFHSLRNFFRRASDMLYFKRLIQIPRLPEGPPNFLRASALAEHIKPVVVIPEEAPEDEEPENLIEISTGPPAGEPVVVADLFDQTFGPPNGSVKDDRDLQIESLKREVEMLRSELEKIKLEAQRYIAQLKSQVNALEGELEEQRKQKQKALVDNEQLRHELAQLRAAQLEGERSQGLREEAERKASATEARYNKLKEKHSELVHVHAELLRKNADTAKQLTVTQQSQEEVARVKEQLAFQVEQVKRESELKLEEKSDQLEKLKRELEAKAGELARAQEALSHTEQSKSELSSRLDTLSAEKDALSGAVRQREADLLAAQSLVRETEAALSREQQRSSQEQGELQGRLAERESQEQGLRQRLLDEQFAVLRGAAAEAAGILQDAVSKLDDPLHLRCTSSPDYLVSRAQEALDAVSTLEEGHAQYLTSLADASALVAALTRFSHLAADTIINGGATSHLAPTDPADRLIDTCRECGARALELMGQLQDQQALRHMQASLVRTPLQGILQLGQELKPKSLDVRQEELGAVVDKEMAATSAAIEDAVRRIEDMMNQARHASSGVKLEVNERILNSCTDLMKAIRLLVTTSTSLQKEIVESGRGAATQQEFYAKNSRWTEGLISASKAVGWGATQLVEAADKVVLHTGKYEELIVCSHEIAASTAQLVAASKVKANKHSPHLSRLQECSRTVNERAANVVASTKSGQEQIEDRDTMDFSGLSLIKLKKQEMETQVRVLELEKTLEAERMRLGELRKQHYVLAGASGSPGEEVAIRPSTAPRSVTTKKPPLAQKPSVAPRQDHQLDKKDGIYPAQLVNY | soluble |
| MNSQELLAIAVDAIDNKKGEDTISLEMKGISDMTDYFVVTHGNNERQVQAIARAVKEVANEQNIEVKRMEGYNEARWILIDLADVVVHVFHKDERNYYNIEKLYQDAPLESYSQVAYLEHHHHHH | not soluble |
| MNSSPKMKHDVFISFRSKDTRDNFVSHLCGCLRRKRIKTFLYDELPADERYEESLKAIEVSKISVIVFSENFGDSRWCLDEVVAILKCKEKFGQIVIPVLYHVDPLDIENQTGSFGDAFAKRRDKAEQLQEWKDSFTEAINLPGWSTAYLRYNPKLILSIKVTVVSELQDVLISGINIMITAFSTCK | soluble |
| MNTDTFMCSSDEKQTRSPLSLYSEYQRMEIEFRAPHIMPTSHWHGQVEVNVPFDGDVEYLINNEKVNINQGHITLFWACTPHQLTDTGTCQSMAIFNLPMHLFLSWPLDKDLINHVTHGMVIKSLATQQLSPFEVRRWQQELNSPNEQIRQLAIDEIGLMLKRFSLSGWEPILVNKTSRTHKNSVSRHAQFYVSQMLGFIAENYDQALTINDVAEHVKLNANYAMGIFQRVMQLTMKQYITAMRINHVRALLSDTDKSILDIALTAGFRSSSRFYSTFGKYVGMSPQQYRKLSQQRRQTFPG | soluble |
| MNTGAQIYRNSSSSIDKNIVDRIYKDGFLIAQYGLYMKRERDYKTFKVPVDAGFSCPNKDGTIDTRGCIFCPKMGRPISVEYCNIKYSLKDQIETQVKQNKEKGIGKFYVYFYPGTNTHGTPERLKELWDYALSFEDVIGISIGTRPDCLEDEKLDILENYVKQGYEIWIDLGIQTMHDKTLDFLNRKHSSNDIRRVLIECKKRGILVCGHIILGLPDESWNMMMETSKMLSDLEIDALKIYPLVVIENTELEEIYWKGEYKSLDEKQYIHLVSDFLEHLSPYVIIQRVSKDKVPDEIKISPEWSLRRLRILNEVSKELARRNSKQGSKYKK | not soluble |
| MNTKKEIKFIEEIKGLVPKKLGKIYTSSIIEKDSKRLTINLKKVDALPKCGLIGAPDVCVKITLTQGAKTQTKSSRVIKNTCSAVYNEAVMFLCGTSKNDLAQTSIVISVHDAQRTCTGDDTIGCAYLGIGAVDKSEIDQWKGTTEHLGKEYKGNHTLKAPITAPPVHVAEANDDVAADDDD | soluble |
| MNTMLNPHYQQIWQTVQLIPQGKVACYGQIADLAGLPGRARLVGKSLGKVPKDGWRGQRVPWFRVINSQGKISFPPGSENFDKQKHHLQDEQVVVIGSRIKLKEFQWKPDLSELLFSLEFLEHHHHHH | not soluble |
| MNTRIKPVRSFLFVPGNKESMLDKAAQAGADALILDLEDSVPSPEKTAARELVAKKIPELIAQNQRIWVRINRTAHIYDLDDILAVAPAGIEGIYISKPGGPEDVYMASCMIAEAEARANLPLGSIGLIPLLETARSMQLCYDIAQMPRVAGIVGATARNADMGRALKFVWTAEGRETEYLKSRVVMAARAAGKQAIGGLWQQIKDLDGLAKSSAFDRQLGMSGELVLHPMQVETINRTYTPTAEDVAYYQGMIEALDAAQAQGRASVMYEGEHIDIAHVKTAHEVIALAQSFGNLEHHHHHH | soluble |
| MNVDVLLKNVWLYQTVTQTFVQRNVAIKNDKFYYIYEEENVNLQPQKTINAENQWMIPGLIDAHMHIESSMTTPTIFSKAVVRYGVTTVIADAHEMANVFGLEGLKAFMAAETELDIFHAIPSSVPSTTPELETTGGIIGLAEVAELLKEPKVICLGEAMNFKGISYEPDSLIRQIIDLCQKQRPTMPLEGHCPKIEDQELADFLYSGITSDHTHQFPKTLKEKIEAGVFIQFQNKSITPENIQVIVDNDFYNYASIITDDVMADDLLKGHLNENVKKAVHAGLPIEKAIYMATYTPAKRMGLHDRGEIAPGKKADFLLLNDLESFDINTVYKSGKVVFEKGEPFHYPEKIEEFPATYQQTIQCKKLTEEDLLLKVATTKETVRCNVIQKQEIGTFTERITKEIPVENGLLQWQKANCALLIVMERYGKNGNISFSLMDQPLSEKGAIATTWAHDHHNLMVMGNTIEDILLAQNELLAMQGGYLVASDQQVMATCPLPIGGILSQAPIEQLGASLQKVRQAMQALGYQNMNEIMSFSTLSLPVSPAIKVTDFGMMDTKSQRFYPLVFPEDGVLLHENTH | not soluble |
| MNVMQENQIKLIEHIKQAVVQAVGLEETEVPEILLEVPKDKKHGDYSTNIAMQLARVAKKAPRQIAESIVPELKKDTKLIKEVEIAGPGFINFYLDNAYLTDLVPVILTEDKKYG | not soluble |
| MNVNGENNEKIDEHHLESSLAGVPTLPVSPLDHAKDLSQTNPNAQIGDLVTQTANLIAIKKQLLEDIAFNQHIQSMQVRAIQSFPQNNQVAPPFQQFDPRRRGLARMQKPESYKTVICQAWLESKTCSFADNCRFAHGEEELRPTFVEPLQNNKYKTKLCDKYTTTGLCPYGKRCLFIHPDHGPNAYIRADKLLEVSQRHALADIRDQMEQHIMTNGRIAAPPLSAIQHPLEMFARPSTPDEPAAKLPLGPTPVSTRGPRYELPTKELHDAEGAMTYPPSRWPLDPSMFALDAWNMAHRPASPLDSMVLGSAPNAGSFGMLGKQNTPGGVSGYSSAGSTPSQDLSSSSLNAASAAAAAAYFANSAVAQSLLMKSVATDPMMSCNGPFSPMPGFDQLAENMTKHLNLW | not soluble |
| MNVREPEITSVTDLTDKELTQQWKIIDWKRVKEVVNNLQSRIASAAKSGNWKTVNKLSRLLTRSFYAKLLSIRKVTTNKGSRTPGIDGIIWSSSADKMRAALQLTNKGYRAKPLTRKYIRKKSGKLRPLSIPTMYDRAMQTLHSLVLGAIESAAGDKTSFGFKPYRSTKDAYAYLHLCLSKKVSPEWIVEGDIKACFDEISHNWILDNIPIDKRILKEFLKAGYIENYHLFPTEKGTPQGGPISPIIGNMSLNGLENALAMRFYSRSDGTIDKSHQNRRKVNYVRFADDLVVTADSPETALEIIDVIQAFLDPRGLKLSEEKTLVTNISEGFNFLGWNFRKYKGKLLPKPSKDSQKEIIKKIRDVLHKAKAWDQDRLIQTLNPIIRGWAEYHNHAVSSAIFNKLDEIVYNMLISWAKRRHSNKGFTWITTKYWHKSGKRKYVFCTELQTLERFSNAKIVRQRLASLNKNPFIDKEYFEQWKFMEYHRKKRITNPNSVLNLEHHHHHH | not soluble |
| MNWAKFRETGSPEDTDMSSTPISSDTTAVSKVIDPNYVLMVADFFKAISPDESCNDFTSFDSFSVLFQNNTRALSIARGRVSCSVTVTPGISNFFKGLHGGAVASIAERVAMACVKTVVSEDKHLFIGELSMSYLSSAPISSELLVEGTVVRTGRNLSVVTVEFKIKETMKVTYLSRATFYHSPISKL | not soluble |
| MNWVTHKPTFEFDNFSPFIRANTAWLGHLEFAYDLVRFEKPEILVELGTHMGASFFSFCQGVKDGGLATKCFAVDTWTGDGHTGPYGEGVFHIVDKVVKTSYPNIGNLIKSTFDEAVDQFQDGTINLLHIDGYHTYEAVSHDYKTWLPKLADNGIVLFHDIEVKDRNFGVYKFWDEVKAKYPHFQFQHSYGLGVLFPKGCSDRFKEILKNKEEIQDMYKLEHHHHHH | soluble |
| MNYAFVVQARLGSTRLPGKILKPFYGNQSILDLMVHKLSAISNIPVIIATTNSVINEPIEKKALALGVKCFRGEENDVLKRFIDVAEYFDIQGIFRICSDNPFLDVHAARQLVEIAMKSCNDYISFDIDGTPSIKTHFGFWGEFVTLDALKRVIGFTDDLLYREHVTNYIYSHPELFNIQWISGSPVVSKHHNIRLTIDTLEDFSVAQRIYRDLQEKRVEISIEVIVDYVRRHAEYIQLMKQQIKKNSKLEHHHHHH | soluble |
| MNYHQYYPVDVVNGPGTRCSLFVAGCVHECVGCYNKSTWRLNSGQPFTQEQEDRIIADLQDKLIPRQGISLSGGDPLHPQNVPDILRLVERIRAECPGKDIWVWTGYVLADITREQQRVVDLINVLVDGKFVQDLKDPALIWRGSSNQVVHRLRLEHHHHHH | not soluble |
| MNYKITTLVENCVYGRKLQAEHGLSLYIETPENRLLFDTGASDLFIRNARLLNIDLQKVDYLVLSHGHSDHTGGLRHFLELNAEATVVCKREVFFSKFKDERENGMKYTRSLDLSRFRFIDELTELVPGVFLFPSVDIIDPKDTHFERFWIQKEDGSRVPDTFPDELAMVLVEPEGLSILSACSHRGITNILRTVRTAFPELPCNLLLGGFHIHNAEESKYQVIADYLHEYLPQKIGVCHCTGVDKYAFFYKDFGDRIFYNHTGKLIQTDSLL | not soluble |
| MNYLKTSGIVIKEVNTGEADRIITIFSKNKGKISALAKGARRPKSHLVAGTQLLCYSEFVLFKGKDMYTVNSCDVIESFYDIRNDLERLTYAAHMMDIVNDVILENQPASRLLQLFLNSLYMLSKTDRSPLQIVRVFEIRLLSTMGYAPWVSSCIKCGSTVFDSMYFSFLKCGFLCSKCLENDKGALKISEGAAKALNYIVHSKMSNLFSFEVSESVLDELGKVSQRYMKERLEKNYTKLDFIKTLDRIKC | soluble |
